One substance from patent publication US6518016 can be followed below.

This data set addresses factor Xa-activated factor V(Q506) (UniProt P12259).
Chain of UniProt P12259 (P12259 29-737 R534Q, chain 1 of 2): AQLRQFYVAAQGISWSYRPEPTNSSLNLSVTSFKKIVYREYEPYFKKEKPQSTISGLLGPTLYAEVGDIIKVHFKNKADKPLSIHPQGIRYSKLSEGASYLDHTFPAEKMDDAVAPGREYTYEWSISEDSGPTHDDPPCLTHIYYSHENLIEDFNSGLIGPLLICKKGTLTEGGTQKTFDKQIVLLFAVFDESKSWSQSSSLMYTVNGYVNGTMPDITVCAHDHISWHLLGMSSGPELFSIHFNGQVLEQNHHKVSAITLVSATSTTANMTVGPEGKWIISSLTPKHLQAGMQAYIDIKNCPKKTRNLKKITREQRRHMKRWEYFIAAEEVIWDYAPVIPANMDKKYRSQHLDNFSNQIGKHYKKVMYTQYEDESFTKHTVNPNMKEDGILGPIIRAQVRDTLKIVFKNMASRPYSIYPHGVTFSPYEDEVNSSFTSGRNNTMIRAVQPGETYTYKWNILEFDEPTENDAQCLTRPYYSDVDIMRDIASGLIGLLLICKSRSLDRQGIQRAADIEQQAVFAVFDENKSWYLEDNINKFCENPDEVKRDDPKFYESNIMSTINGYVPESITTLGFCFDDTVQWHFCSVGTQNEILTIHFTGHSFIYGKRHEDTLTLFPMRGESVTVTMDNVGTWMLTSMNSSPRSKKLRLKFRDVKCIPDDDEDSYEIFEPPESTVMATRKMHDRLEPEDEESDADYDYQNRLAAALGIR
Chain of UniProt P12259 (P12259 1047-2224, chain 2 of 2): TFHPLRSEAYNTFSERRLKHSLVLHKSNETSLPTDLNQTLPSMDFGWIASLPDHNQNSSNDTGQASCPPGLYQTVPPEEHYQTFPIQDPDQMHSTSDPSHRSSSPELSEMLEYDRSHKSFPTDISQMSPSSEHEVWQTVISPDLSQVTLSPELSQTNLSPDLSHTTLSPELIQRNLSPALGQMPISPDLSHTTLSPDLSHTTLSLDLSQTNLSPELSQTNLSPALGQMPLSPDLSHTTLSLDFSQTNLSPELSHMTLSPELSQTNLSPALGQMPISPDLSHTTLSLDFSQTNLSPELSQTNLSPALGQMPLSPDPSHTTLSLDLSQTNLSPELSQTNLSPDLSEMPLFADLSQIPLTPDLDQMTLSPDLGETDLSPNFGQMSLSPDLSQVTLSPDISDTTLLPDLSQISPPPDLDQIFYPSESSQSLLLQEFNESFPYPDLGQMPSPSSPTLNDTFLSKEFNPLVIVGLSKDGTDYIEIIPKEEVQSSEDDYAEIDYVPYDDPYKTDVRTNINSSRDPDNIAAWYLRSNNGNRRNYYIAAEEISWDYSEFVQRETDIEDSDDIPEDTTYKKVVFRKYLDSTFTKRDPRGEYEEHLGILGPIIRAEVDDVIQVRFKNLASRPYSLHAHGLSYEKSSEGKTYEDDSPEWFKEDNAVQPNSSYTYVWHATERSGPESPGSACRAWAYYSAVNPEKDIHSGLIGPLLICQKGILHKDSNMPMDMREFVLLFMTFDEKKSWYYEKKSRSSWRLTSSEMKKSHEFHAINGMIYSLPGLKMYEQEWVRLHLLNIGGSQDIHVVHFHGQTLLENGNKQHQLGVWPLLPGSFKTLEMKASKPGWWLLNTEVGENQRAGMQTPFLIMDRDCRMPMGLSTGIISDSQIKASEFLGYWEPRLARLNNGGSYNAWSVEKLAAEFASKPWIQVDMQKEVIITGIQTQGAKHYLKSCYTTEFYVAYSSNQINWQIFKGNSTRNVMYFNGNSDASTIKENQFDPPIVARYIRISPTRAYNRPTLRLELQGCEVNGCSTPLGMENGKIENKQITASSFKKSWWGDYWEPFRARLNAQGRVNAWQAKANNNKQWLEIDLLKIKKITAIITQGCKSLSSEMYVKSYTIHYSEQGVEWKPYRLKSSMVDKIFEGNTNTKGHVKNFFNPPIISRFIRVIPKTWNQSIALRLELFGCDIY

Consider activated protein C (APC), for which the “inactivation of factor Va activity by APC (factor Va activity over time after adding 1.9 nM APC)” value is listed as “the replacement of Arg-506 by Gln only prevents the inactivation of the Xa-activated form of factor V by APC”.
